According to US20160355583A1 (Novartis, published 2016):
Where two headings read alike, the source gives them in different places.

T1: mouse BMP9 (mouse, UniProt Q9WV56 319-428, limits assumed)
T1 construct: also called murine BMP9; mouse BMP9 (iPROT101715)
T1 sequence (looked up): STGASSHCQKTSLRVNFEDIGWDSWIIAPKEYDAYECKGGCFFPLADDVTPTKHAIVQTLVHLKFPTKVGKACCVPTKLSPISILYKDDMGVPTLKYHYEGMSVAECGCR

T2: human BMP9 (BMP9/Growth Differentiation Factor 2 [Homo sapiens], NP_057288) (human, UniProt Q9UK05 320-429, limits assumed)
T2 construct: cell assays use 'recombinant human BMP9 complex'; also called huBMP9; hBMP9
T2 sequence: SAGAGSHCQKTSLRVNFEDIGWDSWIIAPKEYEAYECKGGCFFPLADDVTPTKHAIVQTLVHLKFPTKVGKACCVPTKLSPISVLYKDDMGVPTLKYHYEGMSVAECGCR

T3: cyno BMP9 (cyno, UniProt G7PEU8 320-429)
T3 sequence: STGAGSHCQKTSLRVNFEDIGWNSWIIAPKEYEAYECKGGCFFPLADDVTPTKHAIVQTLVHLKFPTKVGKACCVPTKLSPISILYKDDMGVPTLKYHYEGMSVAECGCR

T4: human BMP10 (Bone Morphogenetic Protein 10 Preproprotein [Homo sapiens], NP_055297) (human, UniProt O95393 317-424)
T4 construct: Bought recombinant protein; also called huBMP10; rhBMP10 (R&D Cat#2926-BP-025)
T4 sequence: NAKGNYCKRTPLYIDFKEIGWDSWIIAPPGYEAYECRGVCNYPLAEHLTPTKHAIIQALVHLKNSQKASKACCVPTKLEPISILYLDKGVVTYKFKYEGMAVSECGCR

T5: human BMP7 (human, UniProt P18075 293-431)
T5 construct: Bought recombinant protein; also called huBMP7; rhBMP7 (R&D Cat#354-BP-010)
T5 sequence (looked up): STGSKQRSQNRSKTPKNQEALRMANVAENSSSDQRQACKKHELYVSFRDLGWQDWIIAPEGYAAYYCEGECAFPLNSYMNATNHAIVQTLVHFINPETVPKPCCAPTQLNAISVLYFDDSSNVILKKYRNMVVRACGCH

T6: rat BMP9 (rat, UniProt M0RB87 320-430, The mature growth factor is a disulfide-linked homodimer. One copy of the polypeptide is given.)
T6 construct: also called rat BMP9 (R&D Systems 5566-BP); rat BMP9 condition medium
T6 sequence: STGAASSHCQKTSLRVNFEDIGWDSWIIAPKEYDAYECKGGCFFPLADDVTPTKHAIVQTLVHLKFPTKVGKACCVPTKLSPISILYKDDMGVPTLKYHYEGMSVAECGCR


Assays:
[1] = biological target: T1, mouse BMP9; assay: MSD-SET solution equilibrium titration
Procedure: (§1) The amount of free Fab binding sites was determined by transferring the mixtures on antigen-coated plates and a brief incubation. The free Fab was consequently bound to the plate and detected with a detection antibody after a washing step for removing Fab-antigen complexes. The resulting signal was plotted versus the antigen concentration; and the KD was accurately determined by non-linear curve fitting.
(§2) A 22 serial 2ⁿ dilution of the antigens (human BMP9 (GD-43-KS00); cyno BMP9, rat BMP9 (R&D Systems 5566-BP) or mouse BMP9 (iPROT101715)) was prepared in incubation buffer (PBS (Teknova Cat#P0195) containing 0.5% BSA (Sigma Cat#A7906-500G) and 0.02% Tween-20 (VWR Cat#437082Q)). A constant concentration of the Fab was added. A volume of 60 ul of each antigen:Fab mix was distributed in duplicates to a 384-well polypropylene microtiter plate (PP MTP, Greiner Cat#781280). Incubation buffer served as negative control and a sample containing no antigen served as positive control (Bₘₐₓ). The plate was sealed and incubated overnight (O/N) at room temperature (RT).
(§3) A 384-well standard MSD array plate (Meso Scale Discovery Cat#L21XA) was coated with 30 ul/well human BMP9 diluted in PBS as capture agent and incubated O/N at 4° C. After washing for 3 times with 70 ul/well washing buffer (TBS (Teknova Cat#T1680) with 0.05% Tween-20), the plate was blocked with 50 ul/well blocking buffer (PBS with 5% BSA) for 1 hour at RT. After washing, a volume of 30 ul/well of the antigen:Fab mix was transferred from the PP MTP to the coated MSD plate and incubated for 20 min at RT. After an additional wash step, 30 ul of detection antibody (Goat anti-human Fab specific (Jackson Immuno Research Cat#109-005-097) conjugated with MSD SULFO-TAG NHS Ester (Meso Scale Discovery Cat#R91AN-1)) diluted 1:1000 in incubation buffer was added to each well and incubated for 30 min at RT. The MSD plate was washed and 35 ul/well of read buffer (MSD Read Buffer T 4×, Meso Scale Discovery Cat#R92TC-1) was added and then incubated for 5 min at RT. ECL signals were measured with the MSD SECTOR Imager 6000. The data was evaluated with XLfit (IDBS) software following a 1:1 fit model for Fab (according to Piehler et al., 1997).

[2] = biological target: T2, human BMP9 (BMP9/Growth Differentiation …); assay: MSD-SET solution equilibrium titration
Procedure: as §1, §2, §3

[3] = biological target: T3, cyno BMP9; assay: MSD-SET solution equilibrium titration
Procedure: as §1, §2, §3

[4] = biological target: T4, human BMP10 (Bone Morphogenetic Protein …); assay: Table 7 (caption: MSD-SET; Example 6 describes Biacore SPR on immobilised rhBMP10, Fab 31.25-1000 nM)
[5] = biological target: T7, human BMP2 (human, UniProt P12643 283-396); assay: table caption: MSD-SET; Example 6 describes Biacore SPR for BMP2, BMP7, BMP10
T7 construct: Bought recombinant protein; also called huBMP2; rhBMP2 (R&D Cat#355-BM-010)
T7 sequence (P12643 283-396 limits assumed): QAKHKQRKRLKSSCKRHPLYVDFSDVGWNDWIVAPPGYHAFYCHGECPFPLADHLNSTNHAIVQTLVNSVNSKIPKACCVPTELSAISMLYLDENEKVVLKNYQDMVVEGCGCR

[6] = biological target: T2, human BMP9 (BMP9/Growth Differentiation …); assay: cell-based or functional assay
[7] = biological target: T2, human BMP9 (BMP9/Growth Differentiation …); assay: blocking ELISA; competitor Type I BMP receptor (AlkI)
Procedure: (§4) Blocking ELISA was used to identify positive clones that can inhibit the interactions between BMP9 and its receptors. Four different recombinant BMP9 receptors can be used: human Alk1-Fc (R&D system, 370-AL-100); human BMPRII-Fc (R&D system, 811-BR-100); human ActRIIA-Fc (R&D system, 340-R2-100); human ActRIIB-Fc (R&D system).
(§5) The blocking activity of antibody sample to specific ligand/receptor combination was measured by ELISA. In brief, 50 ul of receptor at a concentration of 1 ug/ml in coating buffer (PBS) was added into 96 well ELISA plates at 4° C. overnight, followed by washing with PBST one time. ELISA plates were blocked with 200 ul blocking buffer (PBST containing 1% BSA) in each well and then incubated at room temperature (RT) for 1 hour, followed by washing with PBST for 3 times. Diluted antibody sample was mixed with biotinylated human BMP9 (bio-hBMP9 of 1 ug/ml) and incubated at RT for 45 minutes. The mixture of antibody and bio-hBMP9 was added to the plates of 50 ul/well and then incubated at RT for 30 minutes, followed by washing with PBST for 3 times. 50 ul Poly-HRP Streptavidin (Thermofisher, 21140) was added to each well of the plates and incubated at RT for 30 minutes, followed by washing with PBST for 5 times. Finally, 50 ul of TMB reagent (Invitrogen 002023) and 50 ul of 1N HCl (Invitrogen SS01100) were added to each well to stop the reaction. Absorbance of each well was read at 450 nm to get readout OD₄₅₀.

[8] = biological target: T2, human BMP9 (BMP9/Growth Differentiation …); assay: Biacore SPR, bivalent model, ka1
[9] = biological target: T2, human BMP9 (BMP9/Growth Differentiation …); assay: Biacore SPR, bivalent model, KD from ka1 and kd1
[10] = biological target: T2, human BMP9 (BMP9/Growth Differentiation …); assay: Biacore SPR, bivalent model, kd1
[11] = biological target: T2, human BMP9 (BMP9/Growth Differentiation …); assay: blocking ELISA; competitor Type II BMP receptor (ActRIIB, BMPRII)
Procedure: as §4, §5

[12] = biological target: T5, human BMP7; assay: Table 5 (caption: MSD-SET; Example 6 describes Biacore SPR on immobilised rhBMP7, Fab 31.25-1000 nM)
[13] = biological target: T6, rat BMP9; assay: MSD-SET solution equilibrium titration
Procedure: as §1, §2, §3

[14] = biological target: T7, human BMP2; assay: Table 5 (caption: MSD-SET; Example 6 describes Biacore SPR on immobilised rhBMP2, Fab 31.25-1000 nM)
[15] = biological target: T2, human BMP9 (BMP9/Growth Differentiation …); assay: cell-based or functional assay; remark: listed apart in the source
[16] = biological target: T4, human BMP10 (Bone Morphogenetic Protein …); assay: Table 5 (caption: MSD-SET; Example 6 describes Biacore SPR on immobilised rhBMP10, Fab 31.25-1000 nM)
[17] = biological target: T7, human BMP2; assay: table caption: MSD-SET; Example 6 describes Biacore SPR for BMP2, BMP7, BMP10; remark: listed apart in the source
[18] = biological target: T5, human BMP7; assay: as above

Row | Binder | Kd [1] | Kd [2] | Kd [3] | IC50 [7] | kon [8] | Kd [9] | koff [10] | Kd [13] | RGA IC50 [pM] (HEK293T BRE-Luc reporter gene assay) [15] | binding result [16] | also measured
1 | Antibody BMP9-6: MOR022965 (antibody, human IgG1, kappa, V domains shown, Fully human, phage display) VH: QVQLVQSGAEVKKPGSSVKVSCKASGGTFSSYAISWVRQAPGQGLEWMGHIIPHWGHARYAQKFQGRVTITADESTSTAYMELSSLRSEDTAVYYCARSASSLPHFHWFDYWGQGTLVTVSS VL: DIQMTQSPSSLSASVGDRVTITCRASQDINNYLNWYQQKPGKAPKLLIYAASRLQSGVPSRFSGSGSGTDFTLTISSLQPEDFATYYCQQRDTTPWTFGQGTKVEIKR | 0.069 nM | 0.032 nM | 0.023 nM | ≤ 1 nM |  |  |  |  |  |  | binding result [4]: no binding; Kd [5]: 3110 nM; RGA IC50 [pM] (HEK293T BRE-Luc reporter gene assay) [6]: 180 pM
2 | Mouse Antibody 4E10D7 (antibody, V domains shown, Mouse hybridoma monoclonal antibody; also called parental 4E10D7 antibody) VH: QVQLQQPGAEAVKPGASVKLSCKASGYTFTRYWMHWVKQRPGQGLEWIGEINPSNGGTNYNEKFKSKATLTVDKSSSTAYMQLSSLTSEDFAVYYCTMGSNYGGFVYWGQGTLVTVSA VL: not shown |  |  |  |  | 281000 M⁻¹ s⁻¹ | 2.2 nM | 0.000617 s⁻¹ |  |  |  | 
3 | Antibody BMP9-1: AM0100 (antibody, human IgG1, kappa, V domains shown, also called 4E10D7-AM0100) VH: QVQLVQSGAEVKKPGASVKVSCKASGYTFTRYWMHWVRQAPGQGLEWMGEINPSQGGTNYNEKFKSRVTMTVDKSISTAYMELSRLRSDDTAVYYCAIGSNYGGLVYWGQGTLVTVSS VL: EIVLTQSPATLSLSPGERATLSCRASESLDNYGISFMNWFQQKPGQAPRFLIYAASNQGSGIPARFSGSGSGTDFTLTISSLQPEDTAVYFCQQSKEVPRTFGGGTKVEIKR | 0.073 nM | 0.182 nM | 0.128 nM |  |  |  |  | 0.094 nM | 83 pM | no binding | IC50 [11]: ≤ 1 nM; binding result [12]: no binding; binding result [14]: no binding
4 | Antibody BMP9-4: AM4405 (antibody, human IgG1, kappa, V domains shown, also called 2B11G2-AM4405) VH: QVQLVQSGAEVKKPGASVKVSCKASGYTFRSYNMHWVRQAPGQGLEWMGLIYPGNAVTSYSQKFKDRVTMTVDKSTSTAYMELSSLRSEDTAVYYCAKDDYFRGGSYAMDYWGQGTTVTVSS VL: EIVLTQSPDFQSVTPKEKVTITCRASQSIRNNLHWYQQKPDQSPKLLIKYASQSIRGVPSRFSGSGSGTDFTLTINSLEAEDAATYYCQQSHSWPYTFGGGTKVEIKR | 0.008 nM | 0.018 nM | 0.048 nM | ≤ 1 nM |  |  |  | 0.013 nM | 90 pM | no binding | Kd [17]: 177 nM; Kd [18]: 9170 nM
5 | Mouse Antibody 2B11G2 (antibody, V domains shown, Mouse hybridoma monoclonal antibody; also called B211G2) VH: QAYLQQSGAELVRPGASVKMSCKASGYTFPSYNMHWVKQTPRQGLEWIGVIYPGNGVTSYSQKFKDKATLTVDKSSSTAYMQLSSLTSEDSAVYFCAKDDYFYGGSYAMDYWGQGTSVTVSS VL: DIVLTQSPATLSVTPGDSVSLSCRASQSISNNLHWYQQISHESPRLLIKYASQSISGIPSRFSGSGSGTDFTLSINSMETEDFGMFFCQQSHSWPYTFGGGTKLEIK |  |  |  |  | 2510 M⁻¹ s⁻¹ | 66.2 nM | 0.000166 s⁻¹ |  |  |  | 
